In patent US20180015176A1 (Bayer, published 2018):

B1: TPP-883 single-substitution variant A51Q of CDR-L2 (soluble Fab) (Fab, V domains shown)
VH: EVQLLESGGGLVQPGGSLRLSCAASGFTFSPYPMMWVRQAPGKGLEWVSYISPSGGKTHYADSVKGRFTISRDNSKNTLYLQMNSLRAEDTAVYYCARGGDGYFDYFDYWGQGTLVTVSS
VL: DIQMTQSPATLSASVGDRVTITCRASQSISSYLNWYQQKPGKAPKLLIYQASSLQSGVPSRFSGSGSGTDFTLTISSLQPEDFATYYCQQSYSSPGITFGPGTKVEIK
notes: Soluble Fab
B2: TPP-883 single-substitution variant M35I of CDR-H1 (soluble Fab) (Fab, V domains shown)
VH: EVQLLESGGGLVQPGGSLRLSCAASGFTFSPYPMIWVRQAPGKGLEWVSYISPSGGKTHYADSVKGRFTISRDNSKNTLYLQMNSLRAEDTAVYYCARGGDGYFDYFDYWGQGTLVTVSS
VL: DIQMTQSPATLSASVGDRVTITCRASQSISSYLNWYQQKPGKAPKLLIYAASSLQSGVPSRFSGSGSGTDFTLTISSLQPEDFATYYCQQSYSSPGITFGPGTKVEIK
notes: Soluble Fab; also called M351
B3: TPP-883 single-substitution variant G102T of CDR-H3 (soluble Fab) (Fab, V domains shown)
VH: EVQLLESGGGLVQPGGSLRLSCAASGFTFSPYPMMWVRQAPGKGLEWVSYISPSGGKTHYADSVKGRFTISRDNSKNTLYLQMNSLRAEDTAVYYCARGGDTYFDYFDYWGQGTLVTVSS
VL: DIQMTQSPATLSASVGDRVTITCRASQSISSYLNWYQQKPGKAPKLLIYAASSLQSGVPSRFSGSGSGTDFTLTISSLQPEDFATYYCQQSYSSPGITFGPGTKVEIK
notes: Soluble Fab; also called best single-substitution variant G102T
B4: TPP-883 single-substitution variant G97F of CDR-L3 (soluble Fab) (Fab, V domains shown)
VH: EVQLLESGGGLVQPGGSLRLSCAASGFTFSPYPMMWVRQAPGKGLEWVSYISPSGGKTHYADSVKGRFTISRDNSKNTLYLQMNSLRAEDTAVYYCARGGDGYFDYFDYWGQGTLVTVSS
VL: DIQMTQSPATLSASVGDRVTITCRASQSISSYLNWYQQKPGKAPKLLIYAASSLQSGVPSRFSGSGSGTDFTLTISSLQPEDFATYYCQQSYSSPFITFGPGTKVEIK
notes: Soluble Fab

Each binder was assayed against T1, TPP-599 (HUMAN-TNFRSF12Aaa28-80-hIgG1-Fc) (human, biotinylated with Biotin-LC-NHS (about 2-fold molar excess)) (assay: ELISA, soluble Fab on 2.5 nM biotinylated TWEAKR-Fc, anti-c-myc detection).
T1 construct: Dimeric Fc-fused extracellular domain of human TWEAKR, used biotinylated in the panning and the Fab ELISA; also called TWEAKR Fc; TWEAKR-Fc
Description: Affinity maturation was carried out by phage panning. Washed magnetic beads (DynaBeads) were incubated at 4° C. with 10 nM, 1 nM, 100 pM and 10 pM of biotinylated human antigen overnight and blocked with blocking buffer (PBS with 3% BSA, 0.05% Tween-20) at 4° C. for 1 h. The blocked Fab phage library was added to the blocked TWEAKR DynaBeads at 10 000-fold, 1000-fold and 100-fold excess, compared to the theoretical library complexity, and incubated at room temperature for 30 min. Thus, 12 strategies in total were followed (4 antigen concentrations×3 Fab phage titers). […] For the expression of soluble Fab, the phagemide vector was digested with MluI to remove the gene III-membrane anchor sequence required for Fab display on the phage, and ligated again. 96 variants of each of the 12 selection pools were expressed as soluble Fabs and examined in an ELISA format. […] For efficacy maturation, HEK293 cells were transfected with an NF-kappaB reporter (BioCat, Cat. No. LR-0051-PA). Transfected cells were sown in F17 media (serum-free; Invitrogen) in white polylysine-coated 384-well plates (BD), and individual variants of the NNK-diversified position antibody (human IgG1) libraries were expressed transiently in mammalian cells. The next day, NF-kappaB reporter cells were stimulated with the expressed single-NNK antibody variants for 6 h, and a luciferase assay was then carried out by standard methods.
B1: binds. B2: binds. B3: binds. B4: binds.
